Reference: PMC9093105

Molecular target: Human sapovirus (HuSaV) GI.6 capsid protein VP1, Nichinan strain, self-assembled as a virus-like particle (VLP) (human sapovirus GI.6, Nichinan strain)
Assay: cryo-EM structure; single-particle cryo-EM of purified VLPs in Express Five SFM, icosahedral symmetry imposed, 2.9 Å; de novo atomic model

Human sapovirus (HuSaV) GI.6 capsid protein VP1, Nichinan strain, self-assembled as a virus-like particle (VLP) (natural protein)
stoichiometry N: 180 copies
